Data reported in the supplement of paper PMC10567573.

B1: DLC1 (parent)
chain: HVTHWMGQPFNSDDRNTACHHGLV

Variants of: B1
Test: protein stability index of a GFP-peptide fusion (GPS, HEK-293T) (PSI 1-6); higher = more stable
Conditions: c terminus: a fixed tail appended
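Also: lentivirally expressed fusions sorted by FACS into six bins by GFP to DsRed ratio, PSI derived from sequencing read proportions per bin multiplied by bin number.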

Row | Variant | protein stability index
1 | HVTCWMGQPFNSDDRNTACHHGLV | 2.49
2 | HVTDWMGQPFNSDDRNTACHHGLV | 2.49
3 | HVTEWMGQPFNSDDRNTACHHGLV | 2.63
4 | HVTFWMGQPFNSDDRNTACHHGLV | 1.72
5 | HVTGWMGQPFNSDDRNTACHHGLV | 1.5
6 | HVTIWMGQPFNSDDRNTACHHGLV | 1.89
7 | HVTKWMGQPFNSDDRNTACHHGLV | 2.18
8 | HVTLWMGQPFNSDDRNTACHHGLV | 1.7
9 | HVTMWMGQPFNSDDRNTACHHGLV | 2.72
10 | HVTNWMGQPFNSDDRNTACHHGLV | 2.11
11 | HVTPWMGQPFNSDDRNTACHHGLV | 2.17
12 | HVTQWMGQPFNSDDRNTACHHGLV | 1.78
13 | HVTRWMGQPFNSDDRNTACHHGLV | 1.97
14 | HVTSWMGQPFNSDDRNTACHHGLV | 2.64
15 | HVTTWMGQPFNSDDRNTACHHGLV | 2.38
16 | HVTVWMGQPFNSDDRNTACHHGLV | 2.08
17 | HVTWWMGQPFNSDDRNTACHHGLV | 1.6
18 | HVTYWMGQPFNSDDRNTACHHGLV | 1.44
19 | HVTHAMGQPFNSDDRNTACHHGLV | 3.26
20 | HVTHCMGQPFNSDDRNTACHHGLV | 3.33
21 | HVTHDMGQPFNSDDRNTACHHGLV | 4.27
22 | HVTHEMGQPFNSDDRNTACHHGLV | 4.26
23 | HVTHFMGQPFNSDDRNTACHHGLV | 2.72
24 | HVTHGMGQPFNSDDRNTACHHGLV | 3.89

Row | Variant | protein stability index
25 | HVTHHMGQPFNSDDRNTACHHGLV | 3.8
26 | HVTHIMGQPFNSDDRNTACHHGLV | 3.02
27 | HVTHKMGQPFNSDDRNTACHHGLV | 3.12
28 | HVTHLMGQPFNSDDRNTACHHGLV | 2.53
29 | HVTHMMGQPFNSDDRNTACHHGLV | 3.04
30 | HVTHNMGQPFNSDDRNTACHHGLV | 3.86
31 | HVTHPMGQPFNSDDRNTACHHGLV | 3.3
32 | HVTHQMGQPFNSDDRNTACHHGLV | 3.47
33 | HVTHRMGQPFNSDDRNTACHHGLV | 3.56
34 | HVTHSMGQPFNSDDRNTACHHGLV | 4
35 | HVTHTMGQPFNSDDRNTACHHGLV | 3.43
36 | HVTHVMGQPFNSDDRNTACHHGLV | 3.55
37 | HVTHYMGQPFNSDDRNTACHHGLV | 3.01
38 | HVTHWAGQPFNSDDRNTACHHGLV | 2.75
39 | HVTHWCGQPFNSDDRNTACHHGLV | 2.86
40 | HVTHWDGQPFNSDDRNTACHHGLV | 3.03
41 | HVTHWEGQPFNSDDRNTACHHGLV | 3.24
42 | HVTHWFGQPFNSDDRNTACHHGLV | 2.02
43 | HVTHWGGQPFNSDDRNTACHHGLV | 2.16
44 | HVTHWHGQPFNSDDRNTACHHGLV | 2.34
45 | HVTHWIGQPFNSDDRNTACHHGLV | 2.12
46 | HVTHWKGQPFNSDDRNTACHHGLV | 3.28
47 | HVTHWLGQPFNSDDRNTACHHGLV | 1.93
48 | HVTHWNGQPFNSDDRNTACHHGLV | 2.92

Row | Variant | protein stability index
49 | HVTHWPGQPFNSDDRNTACHHGLV | 2.44
50 | HVTHWQGQPFNSDDRNTACHHGLV | 2.74
51 | HVTHWRGQPFNSDDRNTACHHGLV | 2.63
52 | HVTHWSGQPFNSDDRNTACHHGLV | 2.4
53 | HVTHWTGQPFNSDDRNTACHHGLV | 2.12
54 | HVTHWVGQPFNSDDRNTACHHGLV | 2.48
55 | HVTHWWGQPFNSDDRNTACHHGLV | 2.15
56 | HVTHWYGQPFNSDDRNTACHHGLV | 2.23
57 | HVTHWMAQPFNSDDRNTACHHGLV | 2.35
58 | HVTHWMCQPFNSDDRNTACHHGLV | 2.02
59 | HVTHWMDQPFNSDDRNTACHHGLV | 2.46
60 | HVTHWMEQPFNSDDRNTACHHGLV | 2.63
61 | HVTHWMFQPFNSDDRNTACHHGLV | 2.45
62 | HVTHWMHQPFNSDDRNTACHHGLV | 1.97
63 | HVTHWMIQPFNSDDRNTACHHGLV | 2.03
64 | HVTHWMKQPFNSDDRNTACHHGLV | 1.89
65 | HVTHWMLQPFNSDDRNTACHHGLV | 2.26
66 | HVTHWMMQPFNSDDRNTACHHGLV | 1.39
67 | HVTHWMNQPFNSDDRNTACHHGLV | 2.23
68 | HVTHWMPQPFNSDDRNTACHHGLV | 2.24
69 | HVTHWMQQPFNSDDRNTACHHGLV | 2.07
70 | HVTHWMRQPFNSDDRNTACHHGLV | 1.76
71 | HVTHWMSQPFNSDDRNTACHHGLV | 1.65
72 | HVTHWMTQPFNSDDRNTACHHGLV | 1.91

Row | Variant | protein stability index
73 | HVTHWMVQPFNSDDRNTACHHGLV | 1.84
74 | HVTHWMWQPFNSDDRNTACHHGLV | 3.07
75 | HVTHWMYQPFNSDDRNTACHHGLV | 1.88
76 | HVTHWMGAPFNSDDRNTACHHGLV | 2.26
77 | HVTHWMGCPFNSDDRNTACHHGLV | 2.14
78 | HVTHWMGDPFNSDDRNTACHHGLV | 2.03
79 | HVTHWMGEPFNSDDRNTACHHGLV | 2.43
80 | HVTHWMGFPFNSDDRNTACHHGLV | 2.05
81 | HVTHWMGGPFNSDDRNTACHHGLV | 1.81
82 | HVTHWMGHPFNSDDRNTACHHGLV | 2.32
83 | HVTHWMGIPFNSDDRNTACHHGLV | 2.66
84 | HVTHWMGKPFNSDDRNTACHHGLV | 2.27
85 | HVTHWMGLPFNSDDRNTACHHGLV | 1.22
86 | HVTHWMGMPFNSDDRNTACHHGLV | 1.28
87 | HVTHWMGNPFNSDDRNTACHHGLV | 1.92
88 | HVTHWMGPPFNSDDRNTACHHGLV | 2.1
89 | HVTHWMGRPFNSDDRNTACHHGLV | 2.15
90 | HVTHWMGSPFNSDDRNTACHHGLV | 2.15
91 | HVTHWMGTPFNSDDRNTACHHGLV | 2.6
92 | HVTHWMGVPFNSDDRNTACHHGLV | 1.77
93 | HVTHWMGWPFNSDDRNTACHHGLV | 1.55
94 | HVTHWMGYPFNSDDRNTACHHGLV | 1.74
